Data as given in the supplement of paper PMC12042874.
± gives the uncertainty stated by the source.

experiment: amyloid nucleation score (Sup35N fusion, yeast selection) (log enrichment); library NNK1; higher = more nucleation; inactive = no reads after selection
Procedure, shortened: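 The nucleation score is a DiMSum log enrichment of output over input reads, centred on the mode score of non-aggregating sequences. Sequences under 100 input reads were excluded, and reads came from Illumina sequencing of plasmid inserts. Psi-negative yeast expressing Sup35N fused to peptides of 20 random codons were induced with 100 μM copper sulfate for 24 hours and grown 7 days at 30°C on medium lacking adenine and uracil. Random libraries had three technical output replicates.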

Row | Substance | amyloid nucleation score
1 | VGYSPVVFSLNNICGSPFLM | 5.277 ± 0.047
2 | AVLNQYRELKQAGSFYVSTM | 0.618 ± 0.52
3 | NDVFEHIITFCILRVYHMFC | -0.577 ± 0.3
4 | IYPRMCLRGFAACV | 2.91 ± 0.13
5 | GQRLLL | 1.07 ± 0.56
6 | YAPLLLSWAYFGV | 1.31 ± 0.25
7 | YFSGLKDFILISNQNGSS | 2.66 ± 0.2
8 | KIRSPYNMMPMLTLGTSKGV | 0.845 ± 0.61
9 | ASWTHVIFTYPLGKA | 0.035 ± 1
10 | LGYVYSKSTSSTQSLFICSG | -0.287 ± 0.26
11 | IIRFWLTSVVIYMSFLCRGR | -1.2 ± 1.9
12 | VGTTDG | inactive
13 | FLICVTSNWLGTYCRVERFW | 0.023 ± 0.35
14 | GFNDGVVR | 0.874 ± 0.55
15 | SYPSGSP | -0.061 ± 0.96
16 | CKQCRE | -0.01 ± 0.74
17 | NINYLFVLYMDGSCMYWRAL | 6.354 ± 0.049
18 | IFYFELPKFCKIKDISSKWV | inactive
19 | LFHGCLVGLSMRKVKKKNPA | 0.277 ± 0.28
20 | QYDFQ | -0.532 ± 0.88
21 | HNVLRSHTSRYRYVM | 0.226 ± 0.7
22 | SYHVMNKDYMVYFKNTYKDK | 4.68 ± 0.078

Row | Substance | amyloid nucleation score
23 | AILRSAM | 0.284 ± 0.46
24 | NWFTSMRGLYVSLWYRMKKG | inactive
25 | SPPFQSELMLPLRLSGLVSS | 1.28 ± 0.93
26 | SMIPSNGTRLMLDSLTKYID | inactive
27 | TSGLENVSIVNGLPGLDSLV | 0.11 ± 0.99
28 | LYITVIVHNWVLGWKRVLLE | 1.64 ± 0.71
29 | AVGKYLWASVGIAFDRQSIM | -0.837 ± 2.4
30 | SGIRLM | -1.32 ± 1.8
31 | LYNTITRDTTPHGVEN | -1.84 ± 2.7
32 | RYFLEMISRYISRN | inactive
33 | LSLRCCGFYLIVFFVIKFVS | -0.536 ± 0.29
34 | WTAWADNSACSLCGQN | 0.859 ± 0.73
35 | CVWNYCAWFTVARNTTLFNN | -0.508 ± 0.89
36 | FIIPDRVRFLKGMTSFVNSS | -0.349 ± 1
37 | EHTRKGGSCNMLQRQPFCCT | 0.487 ± 0.52
38 | SLILFV | 0.856 ± 0.45
39 | QNFDHTIHRISVVVPGA | -0.099 ± 1.6
40 | GGMLQLSSSDFTRWAQEWSI | 0.355 ± 0.73
41 | IDNTLIIDFLFLCNVRTFLR | -0.162 ± 0.24
42 | GILMVELWSRR | 2.56 ± 0.18
43 | RNYFCIMYRYRCCKV | 4.23 ± 0.085
44 | KSMMDMSYLMEYIGI | -2.65 ± 2.4

Row | Substance | amyloid nucleation score
45 | RRSYVSSEMNTSKRKSCPLS | 0.659 ± 0.45
46 | IFLVCVSKN | 0.601 ± 0.35
47 | SVWMCM | 2.64 ± 0.1
48 | DQFLGYMANVAGVVP | 0.686 ± 0.34
49 | SIYKSSEREVVY | inactive
50 | VLYFYFFIQIRVGIQYSVKN | 2.41 ± 0.41
51 | VSRWYVILNML | 4.03 ± 0.11
52 | SYVPANY | -1.82 ± 1.1
53 | IPLGPGLPACINEGLKNPVS | -0.439 ± 0.67
54 | KCGRVWHVFFVVSYQGVGST | 1.31 ± 0.46
55 | GSCDYRFYNQLGEWNGYRMA | -0.348 ± 0.49
56 | DLVSTVKDGAECDDKEECSL | -0.147 ± 0.26
57 | NPVGSSRVVYRAPNHVIV | 1.18 ± 0.58
58 | YYTVLLRS | -0.453 ± 0.52
59 | SCSLITQGFRYPWLIYHRCY | 0.436 ± 0.93
60 | WSLQKRG | inactive
61 | SSISV | 2.35 ± 0.53
62 | QHYMQVIDLGSWWSSWVYFI | -0.005 ± 0.97
63 | TQMMDALFLSAL | 0.935 ± 0.79
64 | LIFVNVSGL | 6.406 ± 0.054
65 | SAILVLFEVHFMAPLLCHYL | 0.208 ± 0.42
66 | VSKTTRSCCWELFEA | -0.052 ± 0.42

Row | Substance | amyloid nucleation score
67 | FNYNLCMFMHSVELFLIKIE | 8.162 ± 0.075
68 | TGRYISDYCVIKAYVYSICD | -0.135 ± 0.39
69 | HFRVSDKDL | 1.2 ± 0.38
70 | TVNRMIFFMRLLYTRVKL | -1.68 ± 2.7
71 | FTAKSL | -0.324 ± 0.38
72 | TVPIRTTTLSNGAFVWLI | inactive
73 | FRGYHSSMSGNGDDNEKFGG | 0.24 ± 0.71
74 | FFGLFQLETWA | 0.02 ± 0.37
75 | DGQPLLMGEHYSLGITLM | 1.1 ± 0.81
76 | GPVRQHCYCDMTTVFRILGA | -1.55 ± 1.4
77 | VAHSLYLNIYGFQLMS | 7.454 ± 0.06
78 | KSLMRTTMSCQSDYEDQKDV | 0.883 ± 0.78
79 | YCCGDTPTFCSLKFIMS | 7.059 ± 0.047
80 | KIRLQVNSFMFVTPWAHFMV | 4.55 ± 0.052
81 | KDHTWWALCFYIKIFELKVR | 1.39 ± 0.73
82 | FYKTL | -1.19 ± 1.2
83 | FQVLYNGVMCHYSCWCVWKV | 1.05 ± 0.19
84 | YKESPYNYTWGTVLVGCMVI | -0.702 ± 1.1
85 | NFRLEYDLCVGLTSSHIGGL | -0.219 ± 0.48
86 | TSKGCQ | inactive
87 | RFDVSMRYLSRSDVYDICAR | 0.177 ± 0.59
